Reference: US20050085629A1, “Utilization of FPRL1 as a functional receptor by serum amyloid A (SAA)” (priority 1999, published 2005)
Values belong to the molecule of their own block, whether it stands above or below them.

Experiments:
FPRL1 [1] = target: T1, FPRL1 (Homo sapiens, UniProt P25090); assay: Calcium mobilization (Fura-2) in FPRL1 transfected HEK 293 cells (FPRL1/293 cells); type: cell-based
T1 sequence (P25090 1-351): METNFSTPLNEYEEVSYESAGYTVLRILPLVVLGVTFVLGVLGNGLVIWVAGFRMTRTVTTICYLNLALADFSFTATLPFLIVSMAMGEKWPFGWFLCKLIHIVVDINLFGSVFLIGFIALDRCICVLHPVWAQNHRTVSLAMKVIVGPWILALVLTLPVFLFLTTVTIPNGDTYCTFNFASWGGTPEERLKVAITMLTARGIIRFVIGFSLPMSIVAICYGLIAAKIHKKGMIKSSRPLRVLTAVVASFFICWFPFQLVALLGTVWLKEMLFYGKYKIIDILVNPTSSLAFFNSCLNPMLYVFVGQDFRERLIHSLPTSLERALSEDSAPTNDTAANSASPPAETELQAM

FPRL1 [2] = target: T1, FPRL1; assay: Chemotaxis of FPRL1/293 cells (48-well microchemotaxis chamber); type: cell-based; details: for agonist activity on FPRL1: concluded from chemotaxis experiments
FPRL1 [3] = target: T1, FPRL1; assay: 125I-SAA ligand binding to FPRL1/293 cells
Procedure: (§1) rhSAA (20: g) was radio-iodinated on tyrosine and lysine residues with the chloramine T method and the specific activity of the labeled SAA was 5.8 mCi/mg (courtesy of J. Dobbs, SAIC Frederick, NCI-FCRDC, Frederick, Md.). A constant concentration of 16 nM ^125I-SAA was incubated for 20 min at 37° C. with human monocytes or 293 cells transfected with chemoattractant receptor cDNAs (1.5-2×10^6/sample, in 200: l RPMI1640, 1% BSA, 0.05% NaN3) in the presence of increasing concentrations of unlabeled SAA. After incubation, the cells were washed once with ice-cold PBS then were layered onto a 10% sucrose/PBS cushion in Eppendorf tubes. The cells were centrifuged at 10,000 g for 1 min and the tips of the tubes containing cell pellets were cut and measured for radioactivity in a γ-counter. The binding data were analyzed and plotted with a computer-aided program LIGAND (P. Munson, Division of Computer Research and Technology, NIH, Bethesda, Md.). The level of specific binding was determined by subtraction of non-specific binding (cpm on cells in the presence of 1: M unlabeled SAA) from the total binding (cpm on cells in the absence of unlabeled SAA). Experiments were performed at least 5 times which yielded similar results.

human monocytes [4] = assay: Cross-desensitization of Ca2+ mobilization in human monocytes (and neutrophils); type: cell-based
human monocytes [5] = assay: 125I-SAA ligand binding to human monocytes
Source text: GLPEKY. (SEQ. ID. No. 1). This rhSAA corresponds to SAA-1α, one of the major SAA isoforms in the serum, except for the addition of a methionine at the NH2 terminus as well as the substitution of aspartic acid for asparagine at position 60, which appears in the SAA2 isoform (reviewed in ref. Steinkasserer et al., Biochem. J., 268:187-193 (1990)). rhSAA at concentrations used in the study was negative for endotoxin as assessed by Limulus amebocyte lysate assays (sensitivity: 0.06 IU/ml. Bio Whittaker, Walkersville, Md.). High density lipoprotein (HDL) was purchased from Sigma (St. Louis, Mo.). […]
rhSAA (20: g) was radio-iodinated on tyrosine and lysine residues with the chloramine T method and the specific activity of the labeled SAA was 5.8 mCi/mg (courtesy of J. Dobbs, SAIC Frederick, NCI-FCRDC, Frederick, Md.). […] The cells were centrifuged at 10,000 g for 1 min and the tips of the tubes containing cell pellets were cut and measured for radioactivity in a γ-counter. The binding data were analyzed and plotted with a computer-aided program LIGAND (P. Munson, Division of Computer Research and Technology, NIH, Bethesda, Md.). The level of specific binding was determined by subtraction of non-specific binding (cpm on cells in the presence of 1: M unlabeled SAA) from the total binding (cpm on cells in the absence of unlabeled SAA). […]

neutrophils = assay: 125I-SAA ligand binding to neutrophils; design: species or system human
[6] = target: human peripheral blood CD3+ T lymphocytes; assay: 125I-SAA binding to human peripheral blood CD3+ T lymphocytes
FPR [7] = target: T2, FPR (Homo sapiens, UniProt P21462); assay: Radiolabeled SAA binding to cells transfected to express FPR; design: expressed in transfected cells; details: cells transfected to express the receptor
T2 sequence (P21462 1-350): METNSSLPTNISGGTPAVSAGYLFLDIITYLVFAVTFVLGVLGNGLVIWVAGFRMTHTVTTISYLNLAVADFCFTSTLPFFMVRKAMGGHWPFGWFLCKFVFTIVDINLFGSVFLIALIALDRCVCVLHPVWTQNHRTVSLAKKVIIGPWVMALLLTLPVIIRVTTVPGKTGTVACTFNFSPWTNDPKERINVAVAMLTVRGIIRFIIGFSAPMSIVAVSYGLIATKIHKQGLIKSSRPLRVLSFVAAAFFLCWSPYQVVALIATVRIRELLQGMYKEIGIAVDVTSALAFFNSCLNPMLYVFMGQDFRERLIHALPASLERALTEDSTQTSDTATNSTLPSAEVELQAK
Procedure: as §1

FPR [8] = target: T2, FPR; details: FPR expressing 293 cells, FIG. 2C
leukocyte = details: from Badolato et al. 1994, Xu et al. 1995, Badolato et al. 1995; cited from earlier work
FPR [9] = target: T2, FPR; assay: Chemotaxis of FPR expressing ETFR cells (48-well microchemotaxis chamber); type: cell-based; design: expressed in transfected cells; host or cells: ETFR cells (rat basophil leukemia cell line), gift from Drs; H. Ali and R. Snyderman; details: FIG. 3B
[10] = FPRL1/293 cells, commercially available LXA4 (Biomol)
[11] = FPRL1/293 cells pretreated with toxin

Molecule: CCCCC[C@H](O)/C=C/C=C\C=C\C=C\[C@@H](O)[C@@H](O)CCCC(=O)O [LXA4, lipoxin A4]
induction of Ca2+ flux (FPRL1 [1]; [10]): did not detect a significant induction
induction of chemotaxis (FPRL1 [2]; [10]): did not detect a significant induction
inhibition of SAA binding (FPRL1 [3]; phagocytes or FPRL1/293 cells): nor did we observe inhibition

Molecule: pertussis toxin
effect of cell pretreatment on SAA induced Ca2+ mobilization (FPRL1 [1]; [11]): inhibited
effect of cell pretreatment on SAA induced chemotaxis (FPRL1 [2]; [11]): inhibited

Molecule: CSCC[C@H](NC=O)C(=O)N[C@@H](CC(C)C)C(=O)N[C@@H](Cc1ccccc1)C(=O)O [fMLP, N-formyl-methionyl-leucyl-phenylalanine]
desensitization of Ca2+ flux response to SAA by prior fMLP (FPRL1 [1]; FPRL1/293 cells, sequential stimulation, fMLP at 100 fold excess of SAA): only partially desensitized
desensitization of SAA-induced Ca2+ mobilization (human monocytes [4]; fMLP 10^-3 M = 1 mM, monocytes, FIG. 1C): completely desensitized
desensitization of SAA-induced Ca2+ mobilization (human monocytes [4]; fMLP at 100 nM, monocytes, FIG. 1B): partial desensitizing effect
attenuation of subsequent cell response (Ca2+) to SAA (human monocytes [4]; fMLP at relatively high concentrations (10: M and more), monocytes and neutrophils): able to attenuate a subsequent cell response to SAA
cell migration in response to stimulant (FPRL1 [2]; FPRL1/293 cells, wide range of concentrations, FIG. 3A): failed to migrate
agonist activity on FPRL1 (FPRL1 [2]): partial agonist
competition with 125I-SAA for binding (FPRL1 [3]; unlabeled fMLP at high concentrations (≧10: M), FPRL1/293 cells, FIG. 4D): only partially competed
competition with 125I-SAA for binding (human monocytes [5]; unlabeled fMLP at high concentrations (≧10: M), FIG. 4C): only partially competed

binding sites/cell (FPRL1 [3]; FPRL1/293 cells, FIG. 4A): 42000 binding sites/cell
specific binding (human monocytes [5]; FIG. 4B): specifically bound
Kd [6]: 300 nM
binding to FPR receptor (FPR [7]): not the FPR receptor
B1: ^125I-SAA: rhSAA radio-iodinated on tyrosine and lysine residues with the chloramine T method (protein)
chain: MRSFFSFLGEAFDGARDMWRAYSDMREANYIGSDKYFHARGNYDAAKRGPGGVWAAEAISNARENIQRFFGRGAEDSLADQAANEWGRSGKDPNHFRPAGLPEKY
Kd (neutrophils): 45 nM

B2: serum amyloid A (protein, listed as Homo Sapiens)
chain: B1 chain
modifications: N-terminal methionine
notes: Recombinant human SAA from Pepro Tech; corresponds to SAA-1α with added NH2-terminal methionine and aspartic acid for asparagine at position 60
desensitization of Ca2+ flux response to fMLP by prior SAA (FPRL1 [1]; FPRL1/293 cells, sequential stimulation, 100 fold excess of fMLP): able to desensitize the cell response to a 100 fold excess of fMLP
EC50 (FPRL1 [1]; FPRL1 transfected cells (FPRL1/293 cells), FIG. 2B, read-out: EC50 for Ca2+ mobilization): 250 nM
desensitization of Ca2+ flux induced by chemokines (MCP-1, RANTES, MCP-3, MIP-1, IL-8, SDF-1) (human monocytes [4]; SAA at 1: M, monocytes or neutrophils): failked to desensitize
attenuation of cell response (Ca2+) to fMLP (human monocytes [4]; fMLP used at 100 nM, monocytes, FIG. 1A): did not attenuate the cell response
EC50 (FPRL1 [2]; FPRL1/293 cells, read-out: EC50 of migratory response (chemotaxis)): 200 nM
agonist activity on FPRL1 (FPRL1 [2]): full agonist activity
induction of Ca2+ mobilization (FPR [8]): not in FPR expressing cells
optimal concentrations to induce leukocyte migration, adhesion and tissue infiltration (leukocyte): 0.8-4 : M
cell migration in response to stimulant (FPR [9]): did not migrate
